Here are results for 4 molecules from patent US20220204629A1 (NEW YORK UNIVERSITY, published 2022).

The target of assay [1] is T1, rat galectin-9 CRD2 (rat, UniProt P97840 226-354, limits assumed).
T1 construct: domain: CRD2; Only two short stretches of the rat protein are given; also called CRD2 domain of rat galectin-9; rat gal-9 CRD2
Put plainly: bead based binding, rat CRD2.

Assay [2] addresses T2, human Galectin-9 CRD2 (residues 218-355) (human, UniProt O00182 218-355, biotinylated in vitro with BirA at the Avitag (where immobilised)).
T2 construct: also called human gal-9 CRD2; wild-type Galectin-9 CRD2; not shown: N-terminal hexahistidine tag, Avitag and TEV cleavage site of the pHBT vector
Put plainly: bead based binding, human CRD2.

Assay [3] has as its target T3, cynomolgus monkey galectin-9 CRD2 (cynomolgus monkey, UniProt A0A7N9IHL9 218-355).
T3 construct: domain: CRD2; Only two short stretches of a macaque protein are given; also called CRD2 domain of cynomolgus galectin-9; primate gal-9 CRD2
Put plainly: bead based binding, cynomolgus CRD2.

Assay [4] concerns the target human Galectin-9 CRD2 W277A mutant (human, UniProt O00182 218-355, immobilised on streptavidin coated beads (biotinylated)). Put plainly: mutant on streptavidin beads, G9.2-17 titrated. As for the experimental part:
(§1) FIG. 17 depicts a bar graph showing the results of epitope mapping studies of gal-9 CRD2 using alanine scanning to characterize G9.2-17 binding. Galectin-9 CRD2 mutants were generated using site-directed mutagenesis. Mutants were immobilized onto streptavidin coated beads and G9.2-17 was titrated to generate a saturation curve. KD values were calculated by fitting curves to Michaelis Menton kinetics. ΔΔG values of binding for each mutant versus wild-type galectin shown. Arrows indicate values that are outside the limit of detection for the assay. Higher ΔΔG values represent greater contribution to G9.2-17 epitope. Mutations were mapped onto the surface of gal CRD2 crystal structure (PDB 3nv4).
(§2) To determine the epitope of G9.2-17 on galectin-9 CRD2, we first mutated residues in several positions throughout CRD2 including R239, which is crucial for carbohydrate binding (Zhu et al., 2005). Only one mutation, W277K, decreased G9.2-17 binding. […] To further map the binding patch of G9.2-17, residues that are spatially adjacent to W277 were mutated to alanine and their binding was assessed. W277A and L279A result in complete abrogation of G9.2-17 binding in our assay. […] These residues are located adjacent in space in the beta-sheet, and form a patch on the back side of CRD2 relative to its carbohydrate recognition site.

Assay [5] has as its target human Galectin-9 CRD2 L279A mutant (human, UniProt O00182 218-355, immobilised on streptavidin coated beads (biotinylated)). Put plainly: mutant on streptavidin beads, G9.2-17 titrated. As for the experimental part: as §1, §2
For assay [6], the target named is T2, human Galectin-9 CRD2 (residues 218-355). Put plainly: ELISA, antibody titrated over immobilized human CRD2.
The target of assay [7] is T1, rat galectin-9 CRD2. Put plainly: biolayer interferometry, G9.2-17 captured on anti-Fab probes, rat gal-9 CRD2 in solution, global fit. As for the experimental part: (§3) FIGS. 16A-16D include graphs showing biolayer interferometry analysis to measure binding affinity to human (FIG. 16A), mouse (FIG. 16B), primate (FIG. 16C) or rat (FIG. 16D) gal-9 CRD2. G9.2-17 was captured onto anti-Fab probes and incubated either recombinant human, mouse, primate or rat gal-9 CRD2. Global fit, shown in black line, was used to calculate the dissociation constants. Representative data from triplicate runs shown.
In general terms: BLI is a label-free optical method that tracks binding on a fibre tip over time.

The target in assay [8] is T2, human Galectin-9 CRD2 (residues 218-355). Put plainly: biolayer interferometry, G9.2-17 captured on anti-Fab probes, human gal-9 CRD2 in solution, global fit. As for the experimental part: as §3
Assay [9] addresses T3, cynomolgus monkey galectin-9 CRD2. Put plainly: biolayer interferometry, G9.2-17 captured on anti-Fab probes, primate gal-9 CRD2 in solution, global fit. As for the experimental part: as §3
The target in assay [10] is T4, human Galectin-9 CRD1 (residues 1-148) (human, UniProt O00182 1-148, biotinylated in vitro with BirA at the Avitag).
T4 construct: also called CRD1 domain of galectin-9; not shown: Avitag left upstream after thrombin cleavage of the GST fusion (pGEX)
T4 sequence (O00182 1-148): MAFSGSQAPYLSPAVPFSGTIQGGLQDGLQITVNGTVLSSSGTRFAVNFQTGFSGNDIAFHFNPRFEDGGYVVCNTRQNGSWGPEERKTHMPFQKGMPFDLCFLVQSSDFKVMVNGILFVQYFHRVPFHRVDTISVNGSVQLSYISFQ
Put plainly: bead assay, flow cytometry: biotinylated Galectin-9 CRD1 on streptavidin beads, G9.2-17 human IgG4 titrated. The source says: For further characterization, one clone, […] (a human IgG4 molecule) was screened for CRD specificity. Biotinylated Galectin-9 CRD1 or CRD2 was immobilized onto streptavidin-coated magnetic beads. The beads were blocked with excess biotin, followed by titration of the G9.2-17 human IgG4 antibody. The beads were then stained and quantified via flow cytometry.
A general note: A flow cytometer gives signals particle by particle.

Assay [11] deals with T4, human Galectin-9 CRD1 (residues 1-148). Put plainly: bead based binding.
Assay [12] has the same target. Put plainly: bead-based binding assay. As for the experimental part: The affinities of the antibodies were assessed using a bead-based assay as previously described (Nishikori et al., J Mol Biol, 2012, 424, 391-399) and surface plasmon resonance (SPR). In the bead-based assay, a biotinylated protein (either a Galectin-9 sample or a Fab sample) was immobilized on streptavidin-coated Dynabeads M280 via the biotin-streptavidin interaction. After blocking the excess biotin-binding sites on the beads using unconjugated biotin, binding titration was performed by incubating the second component (i.e., Fab for immobilized Galectin-9 or vice versa), followed by quantification using a dye-labeled neutravidin (ThermoFisher) and flow cytometry analysis. In experiments where the second component is an IgG, a dye-labeled anti-human IgG or anti-mouse IgG antibody was used for detection.
The binding activity of clone G9.1-8m13 is evaluated using conventional methods.

T1 sequence (P97840 226-354 limits assumed): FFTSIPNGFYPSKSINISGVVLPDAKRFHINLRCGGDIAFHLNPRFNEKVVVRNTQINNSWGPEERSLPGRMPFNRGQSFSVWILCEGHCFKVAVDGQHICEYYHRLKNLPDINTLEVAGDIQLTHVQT
T2 sequence (O00182 218-355 limits assumed): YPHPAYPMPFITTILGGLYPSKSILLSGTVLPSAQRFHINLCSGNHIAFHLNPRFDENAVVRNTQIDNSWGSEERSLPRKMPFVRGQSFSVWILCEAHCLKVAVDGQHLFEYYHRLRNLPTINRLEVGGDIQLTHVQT
Chain of human Galectin-9 CRD2 L279A mutant (O00182 218-355 L311A): as the sequence (O00182 218-355 limits assumed) above, with L94A counted along it
Chain of human Galectin-9 CRD2 W277A mutant (O00182 218-355 W309A): as the sequence (O00182 218-355 limits assumed) above, with W92A counted along it

B1: G9.2-17 human IgG4 (antibody, V domains shown)
VH: EVQLVESGGGLVQPGGSLRLSCAASGFTVSSSSIHWVRQAPGKGLEWVAYISSSSGYTYYADSVKGRFTISADTSKNTAYLQMNSLRAEDTAVYYCARYWSYPSWWPYRGMDYWGQGTLVTVSS
VL: DIQMTQSPSSLSASVGDRVTITCRASQSVSSAVAWYQQKPGKAPKLLIYSASSLYSGVPSRFSGSRSGTDFTLTISSLQPEDFATYYCQQSSTDPITFGQGTKVEIKR
notes: also called G9.2-17 hIgG4; G9.2-17 IgG4
On to B1, for which the dissociation constant Kd (usually the free concentration of one partner at which half of the binding sites on the other are occupied at equilibrium, for simple one-to-one binding) in the assay with rat galectin-9 CRD2 [1] came to 0.31 nM; in [2], 0.15 nM; in assay [3], 0.31 nM; in [6] it was 0.42 nM; with rat galectin-9 CRD2 [7] it was 2.71 nM; in [8], 0.183 nM. Further, the equilibrium dissociation constant (Kd) in assay [9] was found to be 0.615 nM. In addition, the figures for the binding result in [4], in assay [5] and in [10] were “no binding”, “no binding” and “no binding (tested: 50 nM)”, respectively.

B2: G9.2-17 mIgG1 (antibody, V domains shown)
VH: EVQLVESGGGLVQPGGSLRLSCAASGFTVSSSSIHWVRQAPGKGLEWVAYISSSSGYTYYADSVKGRFTISADTSKNTAYLQMNSLRAEDTAVYYCARYWSYPSWWPYRGMDYWGQGTLVTVSS
VL: DIQMTQSPSSLSASVGDRVTITCRASQSVSSAVAWYQQKPGKAPKLLIYSASSLYSGVPSRFSGSRSGTDFTLTISSLQPEDFATYYCQQSSTDPITFGQGTKVEIKR
notes: also called mouse IgG1 version of G9.2-17; mIgG1 G9.2-17
For the molecule B2, in assay [11], the binding result is “no binding”. Also, the equilibrium dissociation constant (Kd) was determined as 0.35 nM with rat galectin-9 CRD2 [1], 0.18 nM in assay [2], 0.3 nM in assay [3] and 0.45 nM in assay [6].

B3: G9.1-8m13 Fab (Fab, V domains shown)
VH: EVQLVESGGGLVQPGGSLRLSCAASGFTVSSSSIHWVRQAPGKGLEWVAYIYPYSSSSSYADSVKGRFTISADTSKNTAYLQMNSLRAEDTAVYYCARYSTYSSKWVWGMDYWGQGTLVTVSS
VL: DIQMTQSPSSLSASVGDRVTITCRASQSVSSAVAWYQQKPGKAPKLLIYSASSLYSGVPSRFSGSRSGTDFTLTISSLQPEDFATYYCQQSYYDSNPITFGQGTKVEIKR
notes: Fab purified from E. coli; also called purified G9.1-8m13 Fab; 9.1-8mut13
Turning to B3, in assay [12], the dissociation constant (Kd) was 20.7 nM.

B4: G9.1-8m13 mIgG2a (antibody, V domains shown)
VH: EVQLVESGGGLVQPGGSLRLSCAASGFTVSSSSIHWVRQAPGKGLEWVAYIYPYSSSSSYADSVKGRFTISADTSKNTAYLQMNSLRAEDTAVYYCARYSTYSSKWVWGMDYWGQGTLVTVSS
VL: DIQMTQSPSSLSASVGDRVTITCRASQSVSSAVAWYQQKPGKAPKLLIYSASSLYSGVPSRFSGSRSGTDFTLTISSLQPEDFATYYCQQSYYDSNPITFGQGTKVEIKR
notes: also called purified G9.1-8m13 mIgG2a molecule
B4 yielded a dissociation constant Kd in [12] of 0.3 nM.
